The target in the assay is HLA-A*02:01 (Homo sapiens, UniProt P04439, D140Y/D185E/D98H/E176V/E277Q/G131W/G231S/I119V/I121R/I166T/I218V/L300P/L318F/N151K/N90K/P208A/P217A/Q86G/Q94H/R138H/R169H/T345S). Nature of the assay: MHC binding assay (UV-ligand exchange, β2m ELISA, peptide exchange yield). The conditions noted are these: binding of HLA-class I restricted peptides to HLA-A*02:01, UV-ligand exchange. In outline: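 Peptide-MHC complexes formed by UV-ligand exchange, cleaving a UV-sensitive placeholder peptide in favour of the test peptide. Exchange yield measured by ELISA: monomers diluted 100-fold onto streptavidin-coated plates, 1 h 37 °C, detected with 2 ug/ml HRP anti-β2m and TMB, absorbance at 450 nm.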
In the case of “67 (TLLAEALVTV; listed as Homo sapiens) [compound 67]”, the “Peptide exchange (MHC class I binding score, peptide exchange yield)” value (shortened to “Peptide exchange”) was ““+++” (≥50 = +++)”.
Then “332 (YLISELEAA; listed as Homo sapiens) [compound 332]”, with ““+++” (≥50 = +++)”.
Then “520 (LAVHPSGVAL; listed as Homo sapiens) [compound 520]”, with ““+” (≥10% = +)”.
Then “79 (SLFIGEKAVLL; listed as Homo sapiens) [compound 79]”, with ““+++” (≥50 = +++)”; and “456 (LLIGHLERV; listed as Homo sapiens) [compound 456]”, with ““+++” (≥50 = +++)”.
Take “462 (KLAKQPETV; listed as Homo sapiens) [compound 462]”: the “Peptide exchange” value was ““+++” (≥50 = +++)”.
Then “453 (KLLEATSAV; listed as Homo sapiens) [compound 453]”, with ““++” (≥20% = ++)”; and “620 (KLLNKIYEA; listed as Homo sapiens) [compound 620]”, with ““++++” (≥75% = ++++)”; and “377 (FLLDSSASV; listed as Homo sapiens) [compound 377]”, with ““++” (≥20% = ++)”.
Then “477 (ALLPASGQIAL; listed as Homo sapiens) [compound 477]”, with ““+++” (≥50 = +++)”; and “16 (VLFQGQASL; listed as Homo sapiens) [compound 16]”, with ““+++” (≥50 = +++)”; and “55 (SLLDLETLSL; listed as Homo sapiens) [compound 55]”, with ““++++” (≥75% = ++++)”.
With “201 (RLVDYLEGI; listed as Homo sapiens) [compound 201]”, the “Peptide exchange” value is ““+++” (≥50 = +++)”.
On to “598 (FLFPHSVLV; listed as Homo sapiens) [compound 598]”, for which the “Peptide exchange” value is ““+++” (≥50 = +++)”.
For “199 (ALQDVPLSSV; listed as Homo sapiens) [compound 199]” the value was ““+++” (≥50 = +++)”.
Take “546 (VMIAGKVAVV; listed as Homo sapiens) [compound 546]”: the “Peptide exchange” value is ““+++” (≥50 = +++)”.
Take “158 (KLFDVDEDGYI; listed as Homo sapiens) [compound 158]”: the “Peptide exchange” value is ““+++” (≥50 = +++)”.
Then “83 (ILAPTVMMI; listed as Homo sapiens) [compound 83]”, with ““+++” (≥50 = +++)”; and “374 (FLLQQHLISA; listed as Homo sapiens) [compound 374]”, with ““++” (≥20% = ++)”; and “160 (FLFDEEIEQI; listed as Homo sapiens) [compound 160]”, with ““+++” (≥50 = +++)”.
For “497 (GLLEKLTAI; listed as Homo sapiens) [compound 497]” the value was ““+++” (≥50 = +++)”.
“148 (ALNPEIVSV; listed as Homo sapiens) [compound 148]”: the “Peptide exchange” value is recorded as ““++” (≥20% = ++)”.
For “295 (VLDRESPNV; listed as Homo sapiens) [compound 295]” the value was ““+++” (≥50 = +++)”; for “306 (ALVNVQIPL; listed as Homo sapiens) [compound 306]”, ““+++” (≥50 = +++)”; for “427 (ALLPLSPYL; listed as Homo sapiens) [compound 427]”, ““+++” (≥50 = +++)”.
For “194 (ALPLFVITV; listed as Homo sapiens) [compound 194]” the value was ““+++” (≥50 = +++)”; for “116 (YHIDEEVGF; listed as Homo sapiens) [compound 116]”, ““+” (≥10% = +)”.
For “504 (GLSDGNPSL; listed as Homo sapiens) [compound 504]” the value was ““++” (≥20% = ++)”; for “343 (SLLEVNEESTV; listed as Homo sapiens) [compound 343]”, ““+++” (≥50 = +++)”.
As to “471 (YLYNNMIAKI; listed as Homo sapiens) [compound 471]”, the “Peptide exchange” value is listed as ““+++” (≥50 = +++)”.
For “603 (FLIEPEHVNTV; listed as Homo sapiens) [compound 603]” the value was ““++” (≥20% = ++)”; for “542 (RVWDISTVSSV; listed as Homo sapiens) [compound 542]”, ““+++” (≥50 = +++)”.
Turning to “454 (KLPPPPPQA; listed as Homo sapiens) [compound 454]”, the “Peptide exchange” value was ““+++” (≥50 = +++)”.
For “513 (SLWPSPEQL; listed as Homo sapiens) [compound 513]” the value was ““++” (≥20% = ++)”; for “545 (LLADLLHNV; listed as Homo sapiens) [compound 545]”, ““+++” (≥50 = +++)”; for “458 (SLIDKLYNI; listed as Homo sapiens) [compound 458]”, ““++” (≥20% = ++)”.
Then “334 (TLTKVLVAL; listed as Homo sapiens) [compound 334]”, with ““+++” (≥50 = +++)”.
Turning to “205 (SLYPGTETMGL; listed as Homo sapiens) [compound 205]”, the “Peptide exchange” value is reported as ““+++” (≥50 = +++)”.
Then “135 (ALSEVDFQL; listed as Homo sapiens) [compound 135]”, with ““+++” (≥50 = +++)”; and “206 (VLQEGKLQKLAQL; listed as Homo sapiens) [compound 206]”, with ““+++” (≥50 = +++)”; and “232 (ALLEAQDVELYL; listed as Homo sapiens) [compound 232]”, with ““++” (≥20% = ++)”.
Then “412 (YLDDLNEGVYI; listed as Homo sapiens) [compound 412]”, with ““++” (≥20% = ++)”; and “524 (ALIENLTHQI; listed as Homo sapiens) [compound 524]”, with ““++” (≥20% = ++)”; and “371 (FLQAHLHTA; listed as Homo sapiens) [compound 371]”, with ““++++” (≥75% = ++++)”.
Then “126 (VLAYFLPEA; listed as Homo sapiens) [compound 126]”, with ““++++” (≥75% = ++++)”.
For “204 (KIAENVEEV; listed as Homo sapiens) [compound 204]”, the “Peptide exchange” value is listed as ““++” (≥20% = ++)”.
Then “450 (FMIDASVHPTL; listed as Homo sapiens) [compound 450]”, with ““+++” (≥50 = +++)”.
For “510 (KLYSVVSQL; listed as Homo sapiens) [compound 510]” the value was ““++” (≥20% = ++)”; for “610 (LLAPTPYIIGV; listed as Homo sapiens) [compound 610]”, ““+++” (≥50 = +++)”.
Then “28 (QLLDETSAITL; listed as Homo sapiens) [compound 28]”, with ““+++” (≥50 = +++)”.
In the case of “228 (AMQEYIAVV; listed as Homo sapiens) [compound 228]”, the “Peptide exchange” value was ““++” (≥20% = ++)”.
On to “81 (FLFSQLQYL; listed as Homo sapiens) [compound 81]”, for which the “Peptide exchange” value is given as ““++” (≥20% = ++)”.
Then “153 (FLIANVLYL; listed as Homo sapiens) [compound 153]”, with ““+” (≥10% = +)”; and “84 (VTFGEKLLGV; listed as Homo sapiens) [compound 84]”, with ““++” (≥20% = ++)”.
Consider “296 (FMEGAIIYV; listed as Homo sapiens) [compound 296]”, for which the “Peptide exchange” value is reported as ““+++” (≥50 = +++)”.
Then “196 (YLYSVEIKL; listed as Homo sapiens) [compound 196]”, with ““++++” (≥75% = ++++)”; and “308 (SQYSGQLHEV; listed as Homo sapiens) [compound 308]”, with ““+++” (≥50 = +++)”.
For “60 (SLTIDGIYYV; listed as Homo sapiens) [compound 60]”, the “Peptide exchange” value was ““++++” (≥75% = ++++)”.
As for “183 (FGLDLVTEL; listed as Homo sapiens) [compound 183]”, the “Peptide exchange” value is listed as ““+++” (≥50 = +++)”.
For “19 (FMVDNEAIYDI; listed as Homo sapiens) [compound 19]” the value was ““++++” (≥75% = ++++)”; for “604 (SILDRDDIFV; listed as Homo sapiens) [compound 604]”, ““+++” (≥50 = +++)”.

Values taken from patent US11230581B2, “Peptides and combination of peptides for use in immunotherapy against ovarian cancer and other cancers” (Immatics Biotechnologies GmbH, priority 2015, dated 2022).
